The subject of data set [1] is ScNsrR D8C, [4Fe-4S] (Streptomyces coelicolor). The experiment in a line: EMSA. The conditions noted are these: EMSA: 10 mM Tris, 54 mM KCl, 0.3% glycerol, 1.32 mM glutathione, pH 7.2, on ice ~10 min; 5% PAGE in 1x TBE. In general terms: Mobility shift assays separate free from complexed probe on a gel.
For data set [2], the system named is ScNsrR D8A, [4Fe-4S] (Streptomyces coelicolor). Briefly: EMSA. The conditions noted are these: EMSA: 10 mM Tris, 54 mM KCl, 0.3% glycerol, 1.32 mM glutathione, pH 7.2, on ice ~10 min; 5% PAGE in 1x TBE.

Consider hmpA1 promoter probe, for which the K half ([4Fe-4S] protein:DNA ratio) in data set [1] was 20; in data set [2], more than 20.

These data come from article PMC5411485.
